The nanobody polyreactivity screen of Harvey et al. (2022)

Experiment: yeast display, Sf9 membrane polyspecificity reagent, FACS + sequencing; frameworks hold sequencing errors
In short: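 A nanobody's polyreactivity label depends on the gate it was sorted from. Yeast display cells were stained with 10% biotinylated, detergent-solubilized Sf9 membrane reagent for 1 hour at 4 °C, enriched on streptavidin microbeads and sorted by FACS. The low and high (top ~1%) gates were set on anti-HA fluorescence for expression and streptavidin fluorescence for reagent binding.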

Which “polyreactivity (PSR sort gate)” value does the source give for “QVQLVESGGGLVQAGGSLRLSCAASGRIFTINAMGWYRQAPGKERELVATISDRGGSTYYADTVKGRFTISRDNAKNTVYLQMNSLKPEDTAVYYCAARWGRGLEFDYWGQGTQVTVSS” here?
The value was “high polyreactivity”.

Which “polyreactivity (PSR sort gate)” value does the source give for “QVQLVESGGGLVQAGGSLRLSCAASGRIFTIYAMGWYRQAPAKARELVAAISDRGTRTYYADSVKGRFTISRDNAKNTVFLKMNSLKPEDTAVYYCASDALYTYGYDYWGKGTQVTVSS” here?
The value was “low polyreactivity”.

For “QVQLVESGGGLVQAGGSLRLSCAASGRIFTLYAMGWYRQAPGKEREFVAAINRGGSTNYADSVKGRFTISRDNAKNTVYLQMNSLKPEDTAVYYCAAKTTSRFRTYSYDYWGQGTQVTVSS”, which “polyreactivity (PSR sort gate)” value is on record?
The value was “high polyreactivity”.

Which “polyreactivity (PSR sort gate)” value does the source give for “QVQLVESGGGLVQAGGSLRLSCAASGRIFTLYAMGWYRQAPGKERELVAGISRSGGSTYYADSVKGRFTISRDNAKNTVYFQMNSLKPEDTAVYYCNAVPIYYAWRRNKPFDYWGQGTQVTVSS” here?
Its value is “low polyreactivity”.

With “QVQLVESGGGLVQAGGSLRLSCAASGRIFTLYTMGWYRQAPGKERELVAAINRGGSTTYADSVKGRFTISRDNAKNTVYLQMNSLKPEDTAVYYCAAYRYTSRVYSYWRGYDYWGQGTQVTVSS” as the sequence, how does the “polyreactivity (PSR sort gate)” value read?
Its value is “high polyreactivity”.

With “QVQLVESGGGLVQAGGSLRLSCAASGRIFTNNPMGWYRQAPGQERELVAAISRSGGRTYYADSVKGRFTISRDNAKNTVYLQRNCLKPEDTAVYYCAAVHLYYGYNSPFTMDYWGQGTQVTVSS” as the sequence, how does the “polyreactivity (PSR sort gate)” value read?
Its value is “high polyreactivity”.

With “QVQLVESGGGLVQAGGSLRLSCAASGRIFTPYAMGWYRQAPGKEREFVATISFRGDSTYYADSVKGRFTISRDNAKNSVYLQMNSLKPEDTAVYYCAARQYGGYGYWGQGTQVTVSS” as the sequence, how does the “polyreactivity (PSR sort gate)” value read?
Its value is “high polyreactivity”.

For “QVQLVESGGGLVQAGGSLRLSCAASGRIFTPYAMGWYRQAPGKERELVAAISSSGGSTYYADSVKGRFTISRDNAKNTVYLQMNSLKPEDTAVYYCAAVHYRHVRYDYWGQATQVTVSS”, which “polyreactivity (PSR sort gate)” value is on record?
The value was “high polyreactivity”.

For “QVQLVESGGGLVQAGGSLRLSCAASGRIFTPYAMGWYRQAPGKERELVAVIRDGSTYYADSVKGRFTISRDNAKNTVYLQMNSLKPEDTAVYYCAVRHRYTRAYWGRDYWGQGTQVTVSS”, which “polyreactivity (PSR sort gate)” value is on record?
The value was “low polyreactivity”.

For “QVQLVESGGGLVQAGGSLRLSCAASGRIFTPYAMGWYRQARGKEREVVAVIRDGSTYYADSVKGSFTISRDNAKNTVYLQMNSLKPEDTAVYYCRYDIWVWWSGAYDYWGQGTQVTVSS”, which “polyreactivity (PSR sort gate)” value is on record?
The value was “low polyreactivity”.

For “QVQLVESGGGLVQAGGSLRLSCAASGRIFTQNAMGWNRQAPGKERELVAAISYSGVSTYYADSVKGRFTISRDNAKNTVYLQMNSLKPEDTAVFYCARRYWYPDAFYRYDYWGLGTQVTVSS”, which “polyreactivity (PSR sort gate)” value is on record?
The value was “low polyreactivity”.

With “QVQLVESGGGLVQAGGSLRLSCAASGRIFTQYAMGWYRPPPGKERELVAAINASDGSTYADSVKGRFTISRDNAKNTVYLQMKSLKPEDTAVYYCNVTGGPYDFTRWSEFDHWGQGTQVTVSS” as the sequence, how does the “polyreactivity (PSR sort gate)” value read?
The value was “low polyreactivity”.

Which “polyreactivity (PSR sort gate)” value does the source give for “QVQLVESGGGLVQAGGSLRLSCAASGRIFTRYAMGWYRKEPGKERELVAAISYGGGGTYYADSVKGRFTISRDNAKNTVYLQMNSLKPEDTAVYYCATDDPLSQINEQGMDYWGQGTQVTVSS” here?
Its value is “low polyreactivity”.

For “QVQLVESGGGLVQAGGSLRLSCAASGRIFTRYAMGWYRPAPGKERELVAVIRYSGGSTYYADSVKGRFTISRDNAKNTVYLQMNSLKPEDTAVYYCAAYARGVRRYRRYDYWGQGTQVTVSS”, which “polyreactivity (PSR sort gate)” value is on record?
Its value is “high polyreactivity”.

With “QVQLVESGGGLVQAGGSLRLSCAASGRIFTRYAMGWYRQAPGKERELVAAISYGGGGTYYADSVKGRFTISRDNAKNTVYLQMNSLKPEDTAVYYCATDDPLSQINEQGMDYWGQGTQVTVSS” as the sequence, how does the “polyreactivity (PSR sort gate)” value read?
The value was “low polyreactivity”.

Which “polyreactivity (PSR sort gate)” value does the source give for “QVQLVESGGGLVQAGGSLRLSCAASGRIFTRYAMGWYRQAPGKERELVAAITQRGGTTYYADSVKGRFTISRDNAKNTVYLQMNSLKPEDTAVDYCATRYRYYTERDYWGQGTQVTVSS” here?
The value was “high polyreactivity”.

For “QVQLVESGGGLVQAGGSLRLSCAASGRIFTRYAMGWYRQAPGKERELVATISRGGNTNYADSVKGRFTISRDNAKNTVYLQMNSLKPEDTAVYYCAKYPVSRVGGYGYWGQGTQVTVSS”, which “polyreactivity (PSR sort gate)” value is on record?
The value was “low polyreactivity”.

For “QVQLVESGGGLVQAGGSLRLSCAASGRIFTRYAMGWYRQAPGKERELVAVITRSGGSTYYADSVKGRFTISRDNAKNTVYLQMNSLKPEDTAVYYCAAKYYGEMYYWGQGTQVTVSS”, which “polyreactivity (PSR sort gate)” value is on record?
The value was “low polyreactivity”.

Which “polyreactivity (PSR sort gate)” value does the source give for “QVQLVESGGGLVQAGGSLRLSCAASGRIFTRYAMGWYRQAPGKERELVAVITRSGGSTYYADSVKGRFTLSRDNAKNTVYLQMNSLKPEDTAVYYCAAKYYGEMYYWGQGTQVTVSS” here?
Its value is “low polyreactivity”.

For “QVQLVESGGGLVQAGGSLRLSCAASGRIFTRYTMGWYRQAPGKERQLVASITSSGSSSYYADSVKGRFTISRDYAKNTVYLQMNSLKPEDTAVYYCAARSRLRYLYDYWGHGTQVTVSS”, which “polyreactivity (PSR sort gate)” value is on record?
The value was “high polyreactivity”.

Which “polyreactivity (PSR sort gate)” value does the source give for “QVQLVESGGGLVQAGGSLRLSCAASGRIFTSNAMGWYRQAPGKERELVAAINRSGGRTYYADSVKGRFTISRDNAKNTVYLQMNSLKPEDTAVYYCNKVPYVFGFAASDYWGQGTQVTVSS” here?
The value was “high polyreactivity”.

For “QVQLVESGGGLVQAGGSLRLSCAASGRIFTSNTMGWYRPAPGKERELVAAITSSGGSMYYADSVKGRFTISRDNAKNTVYIQMNSLKPEDTAVYYCAARNYFWGQGTQVTVSS”, which “polyreactivity (PSR sort gate)” value is on record?
The value was “low polyreactivity”.

With “QVQLVESGGGLVQAGGSLRLSCAASGRIFTSYAMGWYRQAPGKEREFVAAITKSGGSTYYADSVKGRFTISRDNAKNTVYLQMNSLKPEDTAVYYCAVEGWDVYQDPYLYDYWGQGTQVTVSS” as the sequence, how does the “polyreactivity (PSR sort gate)” value read?
The value was “low polyreactivity”.

With “QVQLVESGGGLVQAGGSLRLSCAASGRIFTTNAMGWYRQAPGKERELVASISKSGGSTYYADSVKGRFTISRDTAKNTVYLQMNSLKPEDTAVYYCAASSYSTSYIRGDYWGQGTQVTVSS” as the sequence, how does the “polyreactivity (PSR sort gate)” value read?
Its value is “low polyreactivity”.

For “QVQLVESGGGLVQAGGSLRLSCAASGRIFTTYAMGWYRQAPGKERELVARITLSAGRTYYADSVKGRFTISRDNAKYSVYLQMNSLKPEDTEVYYCAAEGFYRSSPVRTYIGYDYWGQGTQVTVSS”, which “polyreactivity (PSR sort gate)” value is on record?
Its value is “high polyreactivity”.

For “QVQLVESGGGLVQAGGSLRLSCAASGRIFTTYVMGWYRQAPGKERELVAAISARGSTYYADSVKGRFTISRDNAKNTVYLEMNSLKPEDTAVYYCAAGHRLPVYYGYPRATYNYWGQGTQVTVSS”, which “polyreactivity (PSR sort gate)” value is on record?
The value was “low polyreactivity”.

For “QVQLVESGGGLVQAGGSLRLSCAASGRIFTVNAMGWYRQAPGKERELVAAISKSGGRTYYADSVKGRFTISRDNAKNTVYLQMNSLKPEDTAVYYCAKRVRTGSVGNFNYWGLGTQVTVSS”, which “polyreactivity (PSR sort gate)” value is on record?
Its value is “high polyreactivity”.

With “QVQLVESGGGLVQAGGSLRLSCAASGRIFTVNTMGWYREAPGKERELVASIRGGGSTNYADSVKGRFTISRDNAKNTVYLQMNSLKPEDTAVYYCAAGTSKPTPIYGYWGQGTQVPVSS” as the sequence, how does the “polyreactivity (PSR sort gate)” value read?
Its value is “low polyreactivity”.

With “QVQLVESGGGLVQAGGSLRLSCAASGRIFTVYAMGWYRQAPGQERELVAAISRGGSTYADSVKGRFTISRDNAKISVYLQMNSLKPEDTAVYYCAAVNFRKGEDYWGQGTQVTVSS” as the sequence, how does the “polyreactivity (PSR sort gate)” value read?
The value was “high polyreactivity”.

With “QVQLVESGGGLVQAGGSLRLSCAASGRIFTWNGMGWYRQATGKERELVAAITSGGRTYADSVKGRFTISRDNAKNTVYLQMNSLKPEDTAVYYCAADVRRRYIWYDYWGQGTQVTVSS” as the sequence, how does the “polyreactivity (PSR sort gate)” value read?
The value was “high polyreactivity”.

Which “polyreactivity (PSR sort gate)” value does the source give for “QVQLVESGGGLVQAGGSLRLSCAASGRIFTWYAMGWYRQAPGKERELVAAISWSGGRTYYADSVKGRFTISRDYSKNTVYLQMNSLKPEVTAVYYCAAREPGRTLDYLGQGTQVTVSS” here?
Its value is “high polyreactivity”.

For “QVQLVESGGGLVQAGGSLRLSCAASGRIFTYNAMGWSRQAPGKERELVATITNGGRTYYADSVKGRFTISRDNAKNTVYLQMNSLKPEDTAVYYCNAGYITYWYAVFYQIDDYWGQGTQVTVSS”, which “polyreactivity (PSR sort gate)” value is on record?
The value was “low polyreactivity”.

With “QVQLVESGGGLVQAGGSLRLSCAASGRIFTYNAMGWYRQAPGKERELVAAISTRGGTTRYADSVKGRFTISRDNAKNTVYLQMNSLKPEDTAVYYCNAVSRGSRWDGLVRLDYWGQGTQVTVSS” as the sequence, how does the “polyreactivity (PSR sort gate)” value read?
The value was “high polyreactivity”.

Which “polyreactivity (PSR sort gate)” value does the source give for “QVQLVESGGGLVQAGGSLRLSCAASGRIFTYNAMGWYRQAPGKERELVAVISRRGGSTYYADSVKGRFTISRDYAKNTVYFQMNSLKAEDTAVYYCAGDLPSYPYEYWGQGTQVTVSS” here?
The value was “low polyreactivity”.

With “QVQLVESGGGLVQAGGSLRLSCAASGRIFTYYAMGWYRQAPGKERELVAAISRRGGSTYYADSVKGRFTISRDNAKNTVYLQMNSLKPEDTAVYYCNAPTKAGGSHYWGQGTQVTVSS” as the sequence, how does the “polyreactivity (PSR sort gate)” value read?
The value was “high polyreactivity”.

For “QVQLVESGGGLVQAGGSLRLSCAASGRIFTYYAMGWYRQAPGKERELVAAITSRGGRTYYADSVKGRFTISRDNAKNTVYLQMNSLKPEDTAVYYCNVDRWRRTISHDIYGYWGQGTQVTVSS”, which “polyreactivity (PSR sort gate)” value is on record?
Its value is “high polyreactivity”.

With “QVQLVESGGGLVQAGGSLRLSCAASGRIFTYYAMGWYSQAPGKERELVAAISRSGGRTYYADSVKGRFTISRDNAKNTVYLQMNSLTPEDTAVYYCAADRLSLRAYDYWGQGTQVTVSS” as the sequence, how does the “polyreactivity (PSR sort gate)” value read?
The value was “high polyreactivity”.

For “QVQLVESGGGLVQAGGSLRLSCAASGRIFTYYAMRWYRQAPGKERELVAGITGSGASTYYADSVKGRFTISRDNAKNTVYLQMNSLKPEDTAVYYCNAPYVIRPFRGRYDYWGQGTLVTVSS”, which “polyreactivity (PSR sort gate)” value is on record?
The value was “high polyreactivity”.

With “QVQLVESGGGLVQAGGSLRLSCAASGRIFTYYDMGWYREAPGKERELVAAITWGGGSTYYADSVKGRFTISRDNAKNSVYLQMNSLKPEDSAVYYCATLYYTFVWRHDYWGQGTQVTVSS” as the sequence, how does the “polyreactivity (PSR sort gate)” value read?
Its value is “low polyreactivity”.

For “QVQLVESGGGLVQAGGSLRLSCAASGRIFTYYTMAWYRQAPGKERELVAAISWSGGRTYYADSVKGRFTISRDNAKNTVYLQMNSLKPEDTAVYYCARRRAVRFYYWGQGTQVTVSS”, which “polyreactivity (PSR sort gate)” value is on record?
Its value is “high polyreactivity”.

For “QVQLVESGGGLVQAGGSLRLSCAASGRIFTYYTMGWYRQAPAKYREFVAAISWSGTSTYYADSVKGRFTISRDNAKNTFYLQMNSLKPEDTAVYYFAARDPPRAGYDYWGQGTHVTVSS”, which “polyreactivity (PSR sort gate)” value is on record?
The value was “high polyreactivity”.

With “QVQLVESGGGLVQAGGSLRLSCAASGRIFVANAMGWYRQAPGKERELVAAISGRGSRTYYADSVKGRFTISRDNAKNAVYLQMNSLKPEDTAVYYCNARQRRNPGGYGYWGQGTQVTVSS” as the sequence, how does the “polyreactivity (PSR sort gate)” value read?
The value was “high polyreactivity”.

For “QVQLVESGGGLVQAGGSLRLSCAASGRIFVDNAMGWYRQAPGKERELVATISWSGGSTYADSVKGRFTISRDNAKNTVYLQMNSLKPEDTAVYYCAADGSWQFYTLYQEFDYWGQGTQVTVSS”, which “polyreactivity (PSR sort gate)” value is on record?
The value was “low polyreactivity”.
